# Read-outs that look alike come from different tables or passages of the source.
# Assays:
# [1] = tested on: T1, Cas12i1 (IVTT-expressed) (uncultured freshwater metagenome); settings: IVTT gene silencing
# T1 sequence: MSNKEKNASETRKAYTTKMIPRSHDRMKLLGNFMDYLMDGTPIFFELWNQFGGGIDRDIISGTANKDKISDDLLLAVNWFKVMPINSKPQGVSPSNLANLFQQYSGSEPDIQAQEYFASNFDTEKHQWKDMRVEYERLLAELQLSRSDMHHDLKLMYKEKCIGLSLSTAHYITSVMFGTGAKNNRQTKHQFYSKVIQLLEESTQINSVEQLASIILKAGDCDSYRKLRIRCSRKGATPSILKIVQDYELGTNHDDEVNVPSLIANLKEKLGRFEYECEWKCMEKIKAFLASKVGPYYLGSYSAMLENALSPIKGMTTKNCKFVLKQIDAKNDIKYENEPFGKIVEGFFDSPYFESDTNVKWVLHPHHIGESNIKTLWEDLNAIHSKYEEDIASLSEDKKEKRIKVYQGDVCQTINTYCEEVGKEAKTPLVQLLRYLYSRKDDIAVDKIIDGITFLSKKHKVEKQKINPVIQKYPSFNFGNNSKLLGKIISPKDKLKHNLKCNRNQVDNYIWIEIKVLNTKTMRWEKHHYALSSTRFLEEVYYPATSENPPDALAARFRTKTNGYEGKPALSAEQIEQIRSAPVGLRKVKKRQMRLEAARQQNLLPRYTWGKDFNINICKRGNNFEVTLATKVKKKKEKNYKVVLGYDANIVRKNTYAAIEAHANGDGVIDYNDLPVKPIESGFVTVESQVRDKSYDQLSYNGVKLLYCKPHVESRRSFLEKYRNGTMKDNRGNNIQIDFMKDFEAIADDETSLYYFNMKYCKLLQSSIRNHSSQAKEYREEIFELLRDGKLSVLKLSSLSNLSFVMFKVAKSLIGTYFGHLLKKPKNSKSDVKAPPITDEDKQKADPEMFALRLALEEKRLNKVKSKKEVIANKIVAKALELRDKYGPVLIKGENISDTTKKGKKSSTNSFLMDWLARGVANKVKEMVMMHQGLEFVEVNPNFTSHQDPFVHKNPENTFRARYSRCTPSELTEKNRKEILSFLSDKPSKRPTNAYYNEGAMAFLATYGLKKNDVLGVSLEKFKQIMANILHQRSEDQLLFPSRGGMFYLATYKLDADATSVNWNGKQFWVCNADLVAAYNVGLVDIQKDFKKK
# [2] = tested on: T1, Cas12i1 (IVTT-expressed) (uncultured freshwater metagenome); settings: IVTT gene silencing, after 400 min
# [3] = tested on: T2, Cas12i2 mammalian construct (uncultured freshwater lake metagenome); experiment: cell_activity; settings: PAM TTC; 293T cells, 72 h; indels centred around +20 from PAM
# T2 sequence: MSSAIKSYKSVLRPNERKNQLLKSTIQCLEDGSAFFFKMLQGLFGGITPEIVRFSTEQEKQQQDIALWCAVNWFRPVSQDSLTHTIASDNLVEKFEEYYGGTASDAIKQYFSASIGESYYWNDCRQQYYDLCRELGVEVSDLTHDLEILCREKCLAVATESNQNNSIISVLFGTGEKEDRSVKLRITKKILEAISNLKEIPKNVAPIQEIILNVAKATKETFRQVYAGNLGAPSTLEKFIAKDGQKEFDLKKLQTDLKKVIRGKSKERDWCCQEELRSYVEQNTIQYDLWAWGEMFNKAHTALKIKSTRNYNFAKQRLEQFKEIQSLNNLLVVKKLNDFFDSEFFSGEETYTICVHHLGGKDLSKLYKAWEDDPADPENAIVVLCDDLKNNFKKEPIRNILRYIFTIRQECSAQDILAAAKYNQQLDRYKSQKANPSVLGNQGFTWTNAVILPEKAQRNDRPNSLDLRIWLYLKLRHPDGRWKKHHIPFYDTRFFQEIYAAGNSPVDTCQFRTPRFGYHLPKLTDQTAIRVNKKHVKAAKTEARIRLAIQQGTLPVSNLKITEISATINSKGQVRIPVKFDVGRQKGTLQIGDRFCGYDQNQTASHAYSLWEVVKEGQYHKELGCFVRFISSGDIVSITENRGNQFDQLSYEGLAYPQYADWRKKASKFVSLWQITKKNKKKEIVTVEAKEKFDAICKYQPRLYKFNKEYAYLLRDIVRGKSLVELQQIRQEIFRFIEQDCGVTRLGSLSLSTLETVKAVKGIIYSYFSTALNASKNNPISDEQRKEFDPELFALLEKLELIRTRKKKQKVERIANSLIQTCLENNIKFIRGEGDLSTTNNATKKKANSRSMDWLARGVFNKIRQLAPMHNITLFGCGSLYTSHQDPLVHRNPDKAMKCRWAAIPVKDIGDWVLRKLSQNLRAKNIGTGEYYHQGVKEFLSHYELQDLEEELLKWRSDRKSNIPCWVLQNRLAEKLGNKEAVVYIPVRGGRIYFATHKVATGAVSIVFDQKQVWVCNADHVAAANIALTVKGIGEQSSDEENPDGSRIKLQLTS
substance,measurement,setting,value
GFP guide complementary to coding strand ; GFP plasmid (sigma 28 promoter),activity (fold GFP depletion),[1],> 4
GFP guide complementary to template strand ; GFP plasmid (sigma 28 promoter),activity (fold GFP depletion),[2],2
"VEGFA guide for Cas12i2 (pre-crRNA) ; VEGFA locus target, TTC PAM",activity,[3],13 % indel
